Source: article PMC2877719

Legend:
[1] = biological target: full-length hEAG1 mutated in BD-N (F151S, A152S) labeled with Cerulean (human) (UniProt O95259); experiment: FRET or BRET; acceptor photobleaching FRET in co-transfected HEK-293 cells; Cerulean on hEAG1 (donor), YFP on CaM (acceptor); 1 uM ionomycin in Ringer solution with 1.8 mM CaCl2 (+Ca2+), 10 min at 37 C, then fixed with 4% formaldehyde
[2] = biological target: C-terminus of hEAG1 (M478-S962) labeled with Cerulean (human) (UniProt O95259); experiment: as above
[3] = biological target: full-length hEAG1 labeled with Cerulean (human) (UniProt O95259); experiment: as above
[4] = biological target: full-length hEAG1 with mutated BD-C2 (F714S, F717S) labeled with Cerulean (human) (UniProt O95259); experiment: as above
[5] = biological target: full-length hEAG1 labeled with Cerulean (human) (UniProt O95259); experiment: FRET or BRET; acceptor photobleaching FRET in co-transfected HEK-293 cells; Cerulean on hEAG1 (donor), YFP on CaM (acceptor); 1 uM ionomycin in Ca2+- and Mg2+-free Ringer solution with 1 mM EGTA (-Ca2+), 10 min at 37 C, then fixed with 4% formaldehyde
[6] = biological target: full-length hEAG1 with mutated BD-C2 (F714S, F717S) labeled with Cerulean (human) (UniProt O95259); experiment: as above

Sequence of full-length hEAG1 labeled with Cerulean (human) (O95259 other isoform, or with tags, fused parts or gaps): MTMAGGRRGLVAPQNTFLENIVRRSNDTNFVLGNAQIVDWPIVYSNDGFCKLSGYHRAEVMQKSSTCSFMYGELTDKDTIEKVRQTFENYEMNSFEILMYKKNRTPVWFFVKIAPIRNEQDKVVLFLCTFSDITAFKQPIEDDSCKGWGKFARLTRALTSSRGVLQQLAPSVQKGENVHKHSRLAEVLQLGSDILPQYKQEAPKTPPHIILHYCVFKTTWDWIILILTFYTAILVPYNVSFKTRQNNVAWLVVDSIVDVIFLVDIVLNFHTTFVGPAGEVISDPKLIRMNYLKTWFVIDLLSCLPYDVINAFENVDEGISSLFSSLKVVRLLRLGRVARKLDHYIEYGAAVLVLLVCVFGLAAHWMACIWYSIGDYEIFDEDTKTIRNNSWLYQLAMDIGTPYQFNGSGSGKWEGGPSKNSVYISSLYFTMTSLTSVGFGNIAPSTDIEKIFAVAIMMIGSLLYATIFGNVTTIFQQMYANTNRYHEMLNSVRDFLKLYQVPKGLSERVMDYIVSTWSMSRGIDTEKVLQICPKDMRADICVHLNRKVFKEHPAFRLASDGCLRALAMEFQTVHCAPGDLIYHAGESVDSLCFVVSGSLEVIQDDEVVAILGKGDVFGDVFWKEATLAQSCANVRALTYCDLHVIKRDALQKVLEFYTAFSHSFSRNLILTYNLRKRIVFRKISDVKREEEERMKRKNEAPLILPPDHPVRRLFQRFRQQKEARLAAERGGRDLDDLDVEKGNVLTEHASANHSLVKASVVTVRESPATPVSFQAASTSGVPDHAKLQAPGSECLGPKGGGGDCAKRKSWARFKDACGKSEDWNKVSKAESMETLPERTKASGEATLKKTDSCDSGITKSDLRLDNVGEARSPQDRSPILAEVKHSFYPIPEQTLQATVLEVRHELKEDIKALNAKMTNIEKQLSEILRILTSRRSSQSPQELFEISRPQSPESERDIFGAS
Sequence of full-length hEAG1 with mutated BD-C2 (F714S, F717S) labeled with Cerulean (human) (O95259 other isoform, or with tags, fused parts or gaps F714S | F717S | F714S F717S): as the sequence (O95259 other isoform, or with tags, fused parts or gaps) above, with F714S, F717S counted along it
Sequence of full-length hEAG1 mutated in BD-N (F151S, A152S) labeled with Cerulean (human) (O95259 other isoform, or with tags, fused parts or gaps F151S | A152S | F151S A152S): as the sequence (O95259 other isoform, or with tags, fused parts or gaps) above, with F151S, A152S counted along it
Sequence of C-terminus of hEAG1 (M478-S962) labeled with Cerulean (human) (O95259 505-989): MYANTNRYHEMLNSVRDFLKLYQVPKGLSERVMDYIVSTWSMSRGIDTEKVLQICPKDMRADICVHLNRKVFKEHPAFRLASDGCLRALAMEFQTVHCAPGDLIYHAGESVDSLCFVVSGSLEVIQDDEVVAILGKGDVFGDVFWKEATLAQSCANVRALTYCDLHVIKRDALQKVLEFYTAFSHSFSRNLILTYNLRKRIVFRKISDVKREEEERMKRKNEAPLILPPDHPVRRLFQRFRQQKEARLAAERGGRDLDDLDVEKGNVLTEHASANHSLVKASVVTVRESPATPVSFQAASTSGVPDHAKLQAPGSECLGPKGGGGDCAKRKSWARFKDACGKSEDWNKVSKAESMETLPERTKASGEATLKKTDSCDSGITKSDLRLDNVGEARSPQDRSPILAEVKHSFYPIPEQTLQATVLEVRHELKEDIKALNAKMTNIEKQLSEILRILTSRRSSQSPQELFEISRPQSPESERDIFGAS

FRET efficiency [1]: 9.8%
mean FRET efficiency [2]: 9.5%
FRET efficiency [3]: 17%
FRET efficiency [4]: 8.7%
FRET efficiency [5]: 10.1%
FRET efficiency [6]: 11.5%
Substance: N-terminally YFP-labeled calmodulin (rat calmodulin II) (from UniProt P0DP30 1-149) (natural protein)
